The term inhibition denotes the change of the read-out against control, counted positive when it falls.

3 molecules from patent publication US7927849B2, “Laccase enzyme and use thereof” (AB Enzymes OY, priority 2004, dated 2011) can be followed below.

The test system of data set [1] is Thielavia wild type laccase (wt TaLcc1). The settings on record: pH 4.5.
Data set [2] deals with T1, Thielavia arenaria ALKO4197 laccase TaLcc1, wild type (wt TaLcc1), SEQ ID NO: 12 (Canariomyces arenarius, UniProt F6N9E7).
T1 construct: predicted mature residues 22-604
Put plainly: biochemical. The note with it: pH 4.5, read-out: Inhibition (%) of laccase.

The test system of data set [3] is recombinant Thielavia arenaria TaLcc1 laccase (rTaLcc1). The data set is classed as biochemical. As for the experimental part:
The inhibition effect of different compounds on the activity of the recombinant TaLcc1 laccase was determined as described in Example 2.

Data set [4] can be described thus: Specific activity on syringaldazine. The data set is classed as biochemical. The settings on record: 25 mM MES buffer, pH 5.5. As for the experimental part: (§1) Specific activities of the purified Thielavia laccase were determined towards different laccase substrates.
Another data set in a line: Specific activity on DMP. The data set is classed as biochemical. The settings on record: 25 mM MES buffer, pH 5.5. As for the experimental part:
as §1

Data set [5] can be described thus: Isoelectric focusing (pI). The data set is classed as physicochemical. The note with it: pH range 3-9, ABTS staining. As for the experimental part:
Molecular weight of the Thielavia arenaria laccase (wt TaLcc1) was determined on SDS-PAGE according to Laemmli (1970). The gels used in the SDS-PAGE analysis were ready-made 12% Tris HCl gels (BioRad). Protein bands were visualized by staining with Coomassie Brilliant Blue (R 350; Pharmacia) and compared with molecular weight markers (Prestained Protein Marker Broad Range #7708S; New England BioLabs, Beverly, Mass.). The molecular weight of the Thielavia areanaria laccase was approximately 80 kDa. The isoelectric point of the laccase was determined with isoelectric focusing within the pH range of 3-9 (Pharmalyte IEF, Pharmacia) on a LKB 2117 Multiphor II Electrophoresis System (LKB Pharmacia, Bromma, Sweden) according to the manufacturer's instructions.
The purified recombinant Thielavia arenaria TaLcc1 was characterized in terms of pH optimum, thermal stability, and pI as described in Example 2. The molecular weight was determined by MALDI-TOF mass spectrometry on a Ultraflex™ time-of-flight instrument (BrukerDaltonics, Germany) as previously described (Palonen et al., 2003). The redox potential of TaLcc1 was also determined with a combined Pt-AgCl/KCl microelectrode at pH 5.0 according to Sigoillot et al (2004)

Data set [6] can be described thus: Specific activity on guaiacol. The data set is classed as biochemical. The note with it: 25 mM MES buffer, pH 5.5. The method, then: as §1
The nature of data set [7]: Specific activity on ABTS. The note with it: 25 mM succinate buffer pH 4.5, 25° C. The data set is classed as biochemical. As for the experimental part: The activity assay was carried out in accordance with the method developed by Niku-Paavola et al. (1988). The sample was diluted with 0.025 M succinate buffer, pH 4.5. […] The activity is expressed as nano katals.
as §1

Where “and” joins values, the source holds several entries; their conditions need not be identical. Identical values can stand only once.

As for `[Cl-].[Na+]` [NaCl], in data set [1], the “Inhibition(%) wt TaLcc1” value was 42% and 35%.

In the case of `O=C(O)CN(CCN(CC(=O)O)CC(=O)O)CC(=O)O` [EDTA], in data set [1], the “Inhibition(%) wt TaLcc1” value was 0%. Moreover, the inhibition at 10000 µM in data set [2] worked out at 0%. The “Inhibition (%) of laccase rTaLcc1” value in data set [3] is on record as 5%.

B1: wt TaLcc1: Wild type laccase purified from Thielavia arenaria ALKO4197 culture supernatant (protein)
chain: MKSWAAAVALMVGILSPHAAAAPPANPVQRDMLQVLEARQSGPTCNTPSNRACWTNGFDINTDYEVSTPNTGRTVAYQLTLTEKENWIGPDGVLKNVVMLVNDKIIGPTIRANWGDNIEVTVINNLKTNGTSMHWHGLRQLGNVFNDGANGVTECPIPPKGGRKTYKFRATQYGTSWYHSHFSAQYGNGVVGTIQIDGPASLPYDIDLGVFPLMDYYYRSADELVHFTQSNGAPPSDNVLFNGTARHPETGAGQWYNVTLTPGKRHRLRIINTSTDNHFQVSLVGHNMTVIATDMVPVNAFTVSSLFLAVGQRYDVTIDANSPVGNYWFNVTFGDGLCGSSNNKFPAAIFRYQGAPATLPTDQGLPVPNHMCLDNLNLTPVVTRSAPVNNFVKRPSNTLGVTLDIGGTPLFVWKVNGSAINVDWGKPILDYVMSGNTSYPVSDNIVQVDAVDQWTYWLIENDPTNPIVSLPHPMHLHGHDFLVLGRSPDELPSAGVRHIFDPAKDLPRLKGNNPVRRDVTMLPAGGWLLLAFKTDNPGAWLFHCHIAWHVSGGLSVDFLERPNDLRTQLNSNAKRADRDDFNRVCREWNAYWPTNPFPKIDSGLRHRFVEESEWMVR
modifications: Thielavia arenaria ALKO4197; (1)..(617) Deduced amino acid sequence of Thielavia arenaria ALKO4197 laccase 1 (Ta Lcc1)
notes: Wild type laccase purified from Thielavia arenaria ALKO4197 culture supernatant
As to B1, in data set [4], the “Specific activity on syringaldazine” value turned out to be 490 nkat/mg. The “Specific activity on DMP” value in the data set “Specific activity on DMP” was 260 nkat/mg. The pI in data set [5] is 5.5-6.9. In data set [6], the “Specific activity on guaiacol” value is 63 nkat/mg. Besides, the “Specific activity on ABTS” value in data set [7] was 1020 nkat/mg.
